In paper PMC6957483, “Anosmin-1 activates vascular endothelial growth factor receptor and its related signaling pathway for olfactory bulb angiogenesis” (Scientific Reports, 2020):
Each block holds one binder with its values, some of them ahead of it.

Molecular target: T1, Recombinant human VEGFR2-Fc (human, UniProt P35968 20-764)
T1 construct: VEGF receptor-2 (VEGFR2, KDR), human; Probably the extracellular domain fused to an IgG Fc; In the functional rows this id stands for the whole VEGFR2 on HUVECs or PAE/KDR cells; also called VEGF receptor-2; KDR; source: bought: BioLegend
Assay: SPR; BIAcore, 20 °C; VEGFR2-Fc (50 µg/mL in 10 mM sodium acetate, pH 4.5) coupled to an EDC/NHS-activated CM5 chip; anosmin-1, its mutant or VEGF-A injected in PBS with 0.35 M NaCl at 30 µL/min; affinity calculated from the on- and off-rates
Conditions: both partners purified

T1 sequence (P35968 20-764): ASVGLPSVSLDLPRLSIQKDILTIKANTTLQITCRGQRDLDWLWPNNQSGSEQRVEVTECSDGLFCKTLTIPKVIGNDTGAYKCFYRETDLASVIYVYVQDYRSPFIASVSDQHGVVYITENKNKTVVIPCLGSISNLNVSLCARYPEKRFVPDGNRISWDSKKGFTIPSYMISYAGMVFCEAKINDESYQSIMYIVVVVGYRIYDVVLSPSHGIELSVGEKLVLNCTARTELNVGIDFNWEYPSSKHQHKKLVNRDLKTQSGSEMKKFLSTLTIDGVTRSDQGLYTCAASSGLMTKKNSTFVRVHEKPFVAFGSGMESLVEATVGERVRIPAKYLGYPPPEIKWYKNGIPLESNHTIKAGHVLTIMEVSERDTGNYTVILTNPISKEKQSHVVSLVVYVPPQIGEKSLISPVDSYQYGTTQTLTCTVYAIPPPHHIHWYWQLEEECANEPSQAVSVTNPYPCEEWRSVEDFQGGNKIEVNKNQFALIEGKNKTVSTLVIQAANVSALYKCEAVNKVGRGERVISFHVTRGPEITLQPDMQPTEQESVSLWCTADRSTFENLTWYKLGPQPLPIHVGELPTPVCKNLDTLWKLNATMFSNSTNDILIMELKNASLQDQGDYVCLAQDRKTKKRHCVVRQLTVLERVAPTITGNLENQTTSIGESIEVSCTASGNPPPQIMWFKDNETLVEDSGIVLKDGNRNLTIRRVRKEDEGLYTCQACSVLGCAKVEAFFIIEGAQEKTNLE

Kd: 1400 nM
koff: 0.046 s⁻¹
kon: 34000 M⁻¹ s⁻¹
B1: Recombinant human anosmin-1 Δ2–4 deletion mutant (domain or fragment)
chain: AGPGAAAARRLDESLSAGSVQRARCASRCLSLQITRISAFFQHFQNNGSLVWCQNHKQCSKCLEPCKESGDLRKHQCQSFCEPLFPKKSYECLTSCEFLKYILLVKQGDCPAPEKASGFAAACVESCEVDNECSGVKKCCSNGCGHTCQVPKTLYKGVPLKPRKELRFTELQSGQLEVKWSSKFNISIEPVIYVVQRRWNYGIHPSEDDATHWQTVAQTTDERVQLTDIRPSRWYQFRVAAVNVHGTRGFTAPSKHFRSSKDP
modifications: secreted from 293T cells (pSecTag2; vector signal and His tag left out), likely N-glycosylated; cysteine box + WAP + first FnIII kept, FnIII 2-4 and His-rich region deleted; C-terminal limit taken …

Kd: 32 nM
koff: 0.0011 s⁻¹
kon: 35000 M⁻¹ s⁻¹
B2: Recombinant human anosmin-1 wild-type (natural protein, UniProt P23352 25-680, looked up)
chain: AGPGAAAARRLDESLSAGSVQRARCASRCLSLQITRISAFFQHFQNNGSLVWCQNHKQCSKCLEPCKESGDLRKHQCQSFCEPLFPKKSYECLTSCEFLKYILLVKQGDCPAPEKASGFAAACVESCEVDNECSGVKKCCSNGCGHTCQVPKTLYKGVPLKPRKELRFTELQSGQLEVKWSSKFNISIEPVIYVVQRRWNYGIHPSEDDATHWQTVAQTTDERVQLTDIRPSRWYQFRVAAVNVHGTRGFTAPSKHFRSSKDPSAPPAPANLRLANSTVNSDGSVTVTIVWDLPEEPDIPVHHYKVFWSWMVSSKSLVPTKKKRRKTTDGFQNSVILEKLQPDCDYVVELQAITYWGQTRLKSAKVSLHFTSTHATNNKEQLVKTRKGGIQTQLPFQRRRPTRPLEVGAPFYQDGQLQVKVYWKKTEDPTVNRYHVRWFPEACAHNRTTGSEASSGMTHENYIILQDLSFSCKYKVTVQPIRPKSHSKAEAVFFTTPPCSALKGKSHKPVGCLGEAGHVLSKVLAKPENLSASFIVQDVNITGHFSWKMAKANLYQPMTGFQVTWAEVTTESRQNSLPNSIISQSQILPSDHYVLTVPNLRPSTLYRLEVQVLTPGGEGPATIKTFRTPELPPSSAHRSHLKHRHPHHYKPSPERY
notes: anosmin-1, human, product of the ANOS1 gene; also called anosmin-1 WT; WT; source: 293 T cells (pSecTag2 vector), conditioned media, purified (HisTrap HP column, PD-10 column)
